We go through one protein from paper PMC8176221, “Identification and Characterization of Two Transmembrane Proteins Required for Virulence of Ustilago maydis” (Frontiers in Plant Science, 2021).

This series deals with the molecule itself. Put plainly: SEC; Vmp2 on a Superose 6 Increase 10/300 column in SEC buffer with 0.03% DDM. A general note: Size exclusion chromatography separates by hydrodynamic size, large species first.

B1: Vmp2 (virulence-associated membrane protein 2), full length without the signal peptide (natural protein)
chain: AESQCEERNDYSRKRPSHKPFTSHQNKQDRSCSSPLPSESCSTSAITPSDSAVRDTSLSRRGLPGMPGDIEWMGFYGSLLAVPTMLSILGIITNYNLGKSYYNSELNAQYYKQSREMLRAHTAKLIQDQEKKFANAGVSWNGMVYGKDGQVNPGAKLPEWNGRVLGGTVANPKSQPVPGSGGAVQGAAAGVGGGTTAGVAAGAGAASAGTGPAQVGGATAGGAGAEAQTGTGAIATGTGTGGAGDAGGSAPVSSGAEQGDAEAGDEARGSEERGDDGTEDRRGGQSEGDDDSDSDGNDEGDAGDAGDAGDA
notes: Vmp2 (UMAG_01689) of Ustilago maydis SG200, a protein of 335 aa, cloned from genomic DNA without the signal peptide (25 aa as predicted by SignalP-5.0); one TM helix at residues 100-115; The methods say that the Mistics-tag was cleaved off with TEV before SEC; also called UMAG_01689; full length Vmp2; source: E. coli OverExpress C43 (DE3), purified (membrane fraction solubilised with DDM, Ni-NTA, …)
Turning to B1, the stoichiometry N – broadly, the number of molecules, sites or subunits per partner or assembly – came to 2.
